The text below walks through data of publication PMC3570589.

Holding throughout (experiment): ITC
Assay [1] has as its target H3_((28–43))K36me3 peptide (UniProt P68431).
The target in assay [2] is H3_((28–43))K36me1 peptide (UniProt P68431).
The target in assay [3] is H3_((28–43))K36me2 peptide (UniProt P68431).
Assay [4] addresses H3_((27–46))K36me3 peptide (UniProt P68431).

Sequence of PHF1 Tudor domain protein, wild-type (ITC and silver-stained peptide pull-downs) (O43189 29-86): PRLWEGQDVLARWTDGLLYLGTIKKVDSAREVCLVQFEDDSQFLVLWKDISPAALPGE

Usually Kd stands for the free concentration of one partner at which half of the binding sites on the other are occupied at equilibrium, for simple one-to-one binding. The low end stands for higher affinity, the high end for lower affinity. On to “PHF1 Tudor domain protein, E66K (from UniProt O43189-1 29-86) (domain or fragment)”, for which, in assay [1], the Ka came out at 43900 M⁻¹, the dissociation constant (Kd) is 22.8 µM and the dH was -6.47 kcal/mol.

A word on the stoichiometry N: it is the number of molecules, sites or subunits per partner or assembly. For “PHF1 Tudor domain protein, W41A (from UniProt O43189-1 29-86) (domain or fragment)”, in assay [1], the Ka turned out to be 33200 M⁻¹, the Kd worked out at 30.1 µM, the dH is -1.35 kcal/mol and the stoichiometry N is 0.68.

As to “PHF1 Tudor domain protein, wild-type (ITC and silver-stained peptide pull-downs) (from UniProt O43189-1 29-86) (domain or fragment)”, in assay [2], the dH was -0.817 kcal/mol and the stoichiometry N worked out at 0.7. In assay [3], this substance gave a Ka of 51800 M⁻¹, a dissociation constant Kd of 19.3 µM, a dH of -3.99 kcal/mol and a stoichiometry N of 0.94. Besides, in assay [1], the Ka was 238000 M⁻¹, the Kd was 4.2 µM, the dH was -5.63 kcal/mol and the stoichiometry N was 0.79.

“PHF19 Tudor domain protein, wild-type (from UniProt Q5T6S3 40-93) (domain or fragment)” displayed a Kd in assay [4] of 5 to 7 µM.
